Experiments:
[1] = system: A5-9 cells; experiment: Puromycin sensitivity of the parent strain; format: cell-based, mouse
Text: (§1) The DNA that controls the production of Aβ is investigated as follows. First, the DNA library is transfected to the cell line where the two recombinant gene constructs described above are introduced (hereinafter referred to as the parent strain). Thereafter, for example, when a drug resistant gene is used as the selection marker, a cell bearing the DNA to enhance the concentration of the corresponding drug and become resistant in the presence of the drug even at a high concentration is selected. […]
(§2) The A5-9 cells or A5-9-PS1 cells described in EXAMPLE 4, to which the human hippocampus cDNA library was transfected through the infection with retrovirus, were cultured in the presence of puromycin of a high concentration (A5-9 cells, 25 μg/ml; A5-9-PS1 cells, 9 μg/ml). […] The concentrations of puromycin used were determined based on the respective minimum puromycin concentrations of 20 μg/ml and 5 μg/ml, at which the A5-9 cells and A5-9-PS1 cells as the parent strain were extinct. […] That is, Aβ was detected as follows. The Aβ secreted in a medium by incubation for 3 days (initial cell concentration of 2×10^5 cells/ml, medium of 3 ml) was immunoprecipitated by anti-Aβ monoclonal antibody 6E10 and the deposits were detected by high sensitive western blotting using anti-Aβ antibody. […]

[2] = system: A5-9-PS1 cells; experiment: Puromycin sensitivity of the parent strain; format: cell-based, mouse
Text: as §1, §2

[3] = system: HEK293 cells where APP and PS1 were overexpressed; experiment: Aβ secreted into the medium by HEK293 cells transfected with cDNA in pcDNA3, assayed by ELISA; format: cell-based; settings: for Fold increase in Aβ42 versus vector control: rate of increase compared to vector-alone control
Text: From the clones selected in EXAMPLE 5 above to increase the production of Aβ, human hippocampus-derived cDNA was amplified by PCR using virus vector pMX sites as primers (which were identified to be sense strand primer, SEQ ID NO: 16; […] and antisense strand primer, SEQ ID NO: 17; […]). The cDNA obtained was ligated with vector pcDNA3 (Invitrogen, Inc.), which was transfected to 4×10^5 cells of HEK293 cells (Tomita S., et al., J. Biol. Chem. 273: 19304-19310, 1998; Tomita S., et al., J. Biol. Chem. 275: 13056-13060, 2000) where APP and PS1 were overexpressed. One day after, the medium was changed to a new medium followed by incubation for 24 hours. The amount of Aβ selected in the medium was assayed by ELISA (Asami-Odaka, A. et al., 34:10272, 1995). It was found so far that 3 kinds of human hippocampus-derived cDNAs increased the amount of Aβ produced (TABLE 2). One of them was identified to be identical with human cDNA (accession No. AAH06223) registered in Genbank. In the following procedures of the present invention, this cDNA was named gene A (SEQ ID NO: 4) and the protein encoding the cDNA was named Protein A (SEQ ID NO: 1). […] The one found to be a gene to control the production of Aβ was a protein, Herp (Kokame K. et al., J. Biol. Chem. 275: 3286, 2000; accession no. AB034989) (cDNA: SEQ ID NO: 5, protein: SEQ ID NO: 2), which was localized in the endoplasmic reticulum and its expression was induced by endoplasmic reticulum stress but its function was unknown. Further the other one found to be a gene to control the production of Aβ was cDNA (cDNA: SEQ ID NO: 6, protein: SEQ ID NO: 3) containing the 1-389 internal sequence from the N terminus of 5-lipoxygenase (accession no. XM 005818).

[4] = Aβ in medium after 24 hours incubation, mean of 2 samples, vector control value in parenthesis

COc1ccc(C[C@H](N)C(=O)N[C@H]2[C@@H](O)[C@H](n3cnc4c(N(C)C)ncnc43)O[C@@H]2CO)cc1 [puromycin] was tested, and the “minimum puromycin concentration at which the cells were extinct” value [1] was 20 µg/mL and the “minimum puromycin concentration at which the cells were extinct” value [2] was 5 µg/mL.

B1: Protein A: human cDNA (Genbank AAH06223, SEQ ID NO: 4) encoding Protein A (SEQ ID NO: 1), function unknown (nucleic acid)
DNA: ATGTCGACGGCGGCGGTTCCGGAGCTGAAGCAGATCAGCCGGGTGGAGGCGATGCGCCTAGGGCCGGGCTGGAGCCACTCGTGCCACGCCATGCTGTACGCCGCCAACCCTGGGCAGCTCTTCGGCCGCATCCCCATGCGCTTCTCGGTGCTGATGCAGATGCGTTTCGACGGGCTGCTGGGCTTCCCCGGGGGCTTCGTGGACCGGCGCTTCTGGTCGCTGGAGGACGGCCTGAACCGGGTGCTGGGCCTGGGCCTGGGCTGCCTGCGCCTCACCGAGGCCGACTACCTGAGCTCGCACCTGACCGAGGGCCCACACCGCGTCGTGGCGCACCTGTACGCGCGGCAGCTGACGCTGGAGCAGCTGCACGCCGTGGAGATCAGCGCGGTGCACTCGCGCGACCACGGCCTGGAGGTGCTGGGCCTCGTGCGGGTCCCGCTGTACACCCAGAAGGACCGAGTCGGAGGCTTCCCCAACTTCCTGAGCAACGCCTTCGTGAGCACGGCTAAGTGCCAGCTCCTCTTTGCCCTCAAGGTGCTCAACATGATGCCCGAGGAGAAGCTGGTTGAGGCCCTGGCTGCAGCCACCGAGAAGCAGAAGAAGGCCCTGGAGAAGTTGCTCCCGGCCTCCTCT
modifications: Human
In the case of B1, the “Aβ40 Concentration [pM]” value [3, 4] is reported as 378 ± 10 (232 ± 34) pM, the “Aβ42 Concentration [pM]” value [3, 4] is reported as 88 ± 22 (45 ± 2) pM and the “Fold increase in Aβ42 versus vector control” value ([3]; column beside the Aβ40 concentration) is reported as 1.6. For the same molecule, the “Fold increase in Aβ42 versus vector control” value ([3]; column beside the Aβ42 concentration) was 2.0.

Reference: patent US20040234990A1, “Method of screening alzheimer's disease-associated gene” (priority 2001, published 2004)
